Measurements: publication PMC11952958, “Integrative structural analysis of NF45–NF90 heterodimers reveals architectural rearrangements and oligomerization on binding dsRNA”

Experiments:
NF90long;NF45 [1] = molecular target: T1, NF90long;NF45 (Mus musculus;Homo sapiens, UniProt Q9Z1X4;Q12905 1-591;1-390, |); test: SEC and EDC cross-linking (SDS-PAGE, CLMS); protein:RNA 1:1 and 2:1; 18-bp complex formation: 30 min on ice, SEC in 20 mM HEPES pH 7.5, 150 mM NaCl, 1 mM DTT; mass photometry at 10-50 nM protein; SAXS and EM buffers not in the material; details: protein: recombinant;recombinant; tags: C-terminal 6xHis (non-cleavable);N-terminal GST, removed with 3C protease; copies: 1;1; blunt
NF90long;NF45 [2] = molecular target: T1, NF90long;NF45; test: SEC-SAXS; mass photometry; protein:RNA 2:1 and 4:1; RNA saturated at 4:1; 18-bp complex formation: 30 min on ice, SEC in 20 mM HEPES pH 7.5, 150 mM NaCl, 1 mM DTT; mass photometry at 10-50 nM protein; SAXS and EM buffers not in the material; details: protein: recombinant;recombinant; tags: C-terminal 6xHis (non-cleavable);N-terminal GST, removed with 3C protease; copies: 1;1; S13 is labelled 3'-5' but pairs only if read 5'-3' (18 bp, 7-nt 3' tails)
NF90long;NF45 [3] = molecular target: T1, NF90long;NF45; test: SEC-SAXS; mass photometry; not more than 4 heterodimers per RNA (SAXS); up to 3 by mass photometry; 18-bp complex formation: 30 min on ice, SEC in 20 mM HEPES pH 7.5, 150 mM NaCl, 1 mM DTT; mass photometry at 10-50 nM protein; SAXS and EM buffers not in the material; details: protein: recombinant;recombinant; tags: C-terminal 6xHis (non-cleavable);N-terminal GST, removed with 3C protease; copies: 1;1; blunt
NF90long;NF45 [4] = molecular target: T1, NF90long;NF45; test: quantitative EDC CLMS; 18-bp complex formation: 30 min on ice, SEC in 20 mM HEPES pH 7.5, 150 mM NaCl, 1 mM DTT; mass photometry at 10-50 nM protein; SAXS and EM buffers not in the material; details: protein: recombinant;recombinant; tags: C-terminal 6xHis (non-cleavable);N-terminal GST, removed with 3C protease; copies: 1;1; blunt

B1: 18-bp 2'-fluoro dsRNA (EDC) (XNA)
RNA 1: UCACUUUCAUAAUGCUGG
RNA 2: CCAGCAUUAUGAAAGUGA
modifications: uniform 2'-fluoro (printed beside the top strand; Methods call the duplex 2'-fluorinated)
binding result (NF90long;NF45 [1]): binds

B2: 25-bp dsRNA (SAXS) (dsRNA)
RNA 1: UCACUUUCAUAAUGCUGGUCACUUU
RNA 2: CCAGCAUUAUGAAAGUGACCAGCAU
binding result (NF90long;NF45 [2]): binds

B3: 54-bp dsRNA (SAXS) (dsRNA)
RNA 1: UCACUUUCAUAAUGCUGGUCACUUUCAUAAUGCUGGUCACUUUCAUAAUGCUGG
RNA 2: CCAGCAUUAUGAAAGUGACCAGCAUUAUGAAAGUGACCAGCAUUAUGAAAGUGA
binding result (NF90long;NF45 [3]): binds

B4: 25-bp GC-rich dsRNA (CLMS) (dsRNA)
RNA 1: GCCGCGGAGGCCCCGCCGUGGGCCC
RNA 2: GGGCCCACGGCGGGGCCUCCGCGGC
binding result (NF90long;NF45 [4]): binds
